Source: patent US20070066800A1, “Apo2l(trail) receptor binding peptides and uses thereof” (priority 2003, published 2007)

Target: Human DR5-ECD long form polypeptide (human)
Assay: phage competition ELISA (Comp/DR5 ECD)
Conditions: not given

| Molecule | IC50 [nM] |
| --- | --- |
| EVCMTSCEKLM (phage-displayed) [LB848] | 29400 |
| QEVCMTSCDKLMKANWMAAM (phage-displayed) [LB867] | 29.4 |
| VEAGEVCLTLCEKLM (phage-displayed) [3H857-13] | 167 |
| FEQGEVCMTLCEKLM (phage-displayed) [3H858-1] | 83.3 |
| GEVCLTLCSKLR (displayed on phage) [LB952] | 424 |
| GEVCLTLCSRLT (displayed on phage) [LB953] | 23.5 |
| GRVCLTLCSKLR (phage-displayed) [LB954] | 23.5 |
| GEVCLTLCSKLT (displayed on phage) [LB956] | 35.3 |
| GEVCLTECSKLR (displayed on phage) [LB959] | 23.5 |
| GEVCLTECSRLT (phage-displayed) [LB960] | 17.6 |
| GEVCLTECSKLT (phage-displayed) [LB963] | 11.8 |
| RLPGEVCLTSCERLL (phage-displayed) [871-4-S3] | 149 |
| ESRGEVCLTSCERLR (phage-displayed) [871-31-S3] | 14.9 |
| GEVCLTSCERLR (phage-displayed) [LB882] | 14.9 |
| GEVCLTTCSRIR (phage-displayed) [LB933] | 23.8 |
| GEVCLTLCSRLR (phage-displayed) [LB934] | 3 |
| GEVCLTMCSRLR (displayed on phage) [LB935] | 4.5 |

| Molecule | IC50 [nM] |
| --- | --- |
| GEVCLTSCERIR (displayed on phage) [LB936] | 9 |
| GEVCLTSCDRLR (phage-displayed) [LB937] | 11.9 |
| CVAMTTCEKLRLCQSL (phage-displayed) [2Hd7-7] | 6.9 |
| GEVCLTSCSRIR (displayed on phage) [LB938] | 11.9 |
| GEACLTSCSRLR (phage-displayed) [V3A] | 9.8 |
| GEVCLTSCARLR (phage-displayed) [S9A] | 12.7 |
| EVCMTSCEKLMSALSL (phage-displayed) [2H9-13] | 79.1 |
| GEVCLTSCSALR (phage-displayed) [R10A] | 9.8 |
| EVCMTSCDRLKQAFLL (phage-displayed) [2H9-15] | 78.4 |
| CVAMTTCSKLRQCLSA (phage-displayed) [2Hd7-1] | 4.9 |
| CVAMTSCEKLRSCLLL (displayed on phage) [2Hd7-2] | 19.6 |
| CVAMTTCDKLRECMAI (phage-displayed) [2Hd7-3] | 49 |
| EVCMTSCEKLMSAL (phage-displayed) [LB845] | 39.2 |
| CVAMTSCDKLRLCQLL (phage-displayed) [2Hd7-20] | 29 |
| EVCMTSCEKLMSA (displayed on phage) [LB846] | 49 |
| EVCMTSCEKLMS (displayed on phage) [LB847] | 735 |

System: Apo-2L.0 and DR5
Assay: IC50
Conditions: not given
From the text: Table printed on a drawing sheet, FIG._4C
Title: Step 3: Truncation Scan
The patent's description of the figure: FIGS. 4A-4D provide illustrations of the protocols used to modify Apo-2L receptor binding peptides.
Where the first naming reader finds the target: passage: inhibit the interaction between Apo-2L.0 (amino acids 114 to 281 of SEQ ID NO: 1) and DR5 (SEQ ID NOs: 105 and 109)

| Molecule | IC50 [nM] |
| --- | --- |
| EVCMTSCEKLMSALSL | 79 |
| EVCMTSCEKLMSAL [C1-14] | 39 |
| EVCMTSCEKLM [C1-11*] | 2940 |
| EVCMTSCEKLMSA [C1-13] | 49 |

Target: T1, Hu DR5 ECD (SEQ ID NO: 105) (Homo sapiens, UniProt O14763, A67V/E190F/V191A)
T1 construct: Human DR5-ECD long form polypeptide
Assay: Phage competition Ic50 ELISA (phagemid binding assay), competitor DR5 ECD
Conditions: Positive clones, competitor DR5 ECD (Comp/DR5 EcD)
Description: The Apo-2L receptor binding peptides disclosed herein were identified from the bacteriophage peptide library constructs shown in Tables I and II using the following phagemid binding assay.
1. Coat microtiter plate wells with 80 ul of 1 ug/ml Apo-2L receptor DR5 ECD (SEQ ID NO: 105) (in 50 mM sodium carbonate pH 9.6) at 4° C. overnight.
2. Remove coat and block with 200 ul PBS/0.1% BSA. Incubate 1 hour at room temperature.
3. Prepare competing receptor solutions (100 ul/sample).
Dispense SOul binding buffer to row H through B in a new non-sticky 96-well plate.
Dispense 75 ul competing receptor solution to row A.
Make 3-fold serial dilutions by transferring 25 ul solution along columns except for row H (use fresh tip set for each transfer).
4. Prepare appropriate subsaturating phage dilution (predetermined from phage dilution series).
Transfer 50 ul of phage diluent to each microtiter well of the non-sticky plate. Start at row H then G,F,E,D,C,B,A respectively.
Incubate at R.T. for 2 hours.
5. Shake block off plate which has been coated with DR5 ECD (SEQ ID NO: 105) and rinse 10 times with PBS+0.05% tween 20.
6. Transfer 80 ul the mixture of competing receptor and phage from the non-sticky plate to DR5 ECD coated plate and incubate 20 minutes at room temperature.
7. Make a 1:5000 dilution of HRP conjugate anti-M13 monoclonal Ab (Amersham Pharmacia Biotech) into binding buffer.
Rinse plate 10 times with PBS/tween20 (be thorough here to remove vast excess of non displaying phage).
Add 80 ul of Ab diluent to row H through A.
8. Mix TMB peroxidase substrate and peroxidase solution B at equal volume.
Rinse plate 10 times with PBS/tween20.
Add 80 ul of substrate to row H through A.
Incubate as required to develop and stop with 80 ul 2.5M H2SO4.
A number of bacteriophage clones expressing peptides of interest were generated using the above methods and then purified using limiting dilution. In order to further characterize specific clones of interest (e.g. to determine Ic 50 values), phage clones were grown and then purified using a polyethylene glycol based method as described in Sidhu et al., Methods Enzymol. 328, 333-363 (2000). Alternative methods for generating and purifying bacteriophages are also known in the art. See, e.g. Current Protocols In Molecular Biology, Volume 1, Units 1, 5 and 6, Frederick M. Ausubel et al. eds., 1995.
Phage clones identified using the above methods were grown and then purified using the following polyethylene glycol based method. Briefly, a bacterial culture infected with a phage clone of interest is grown under conditions favorable to phage growth and then centrifuged for 10 min at 2° C. and 16,000 g. The supernatant is then transferred to a fresh centrifuge tube and a 1/5 volume of PEG-NaCl (PEG 8000 (200 g/L), NaCl (146 g/L), autoclaved) is added. The mixture is then incubated for 5 minutes at room temperature. The mixture is then centrifuged as above and the supernatant decanted. The supernatant is then respun briefly and the remaining supernatant removed. The phage pellet is then resuspended in 1/20 volume of PBS (or other analogous buffer). Insoluble matter is then pelleted by centrifugation. The supernatant containing the purified phage is saved and used in assays such as Ic 50 and Ec 50 assays that are described in the following examples.
In the Tables provided herein, “Ic 50” refers to the measure of the concentration of peptide needed to inhibit 50% of Apo-2L (e.g. amino acids 114 to 281 of SEQ ID NO: 1) binding to an Apo-2L receptor molecule (e.g. DR4-IgG (SEQ ID NO: 108) or DR5 ECD (SEQ ID NO: 105) etc.). The peptides are classified such that class 1-class 4 represent a, b, c, and d respectively.

| Molecule | IC50 [nM] |
| --- | --- |
| 2Hd7-20 (CVAMTSCDKLRLCQLL) [Peptide 2Hd7-20] | 29 |
| LB936 (GEVCLTSCERIR) | 9 |
| 3H858-2 (IRVGEVCMTTCEKLM) [Peptide 3H858-2] | 66.7 |
| LB933 (GEVCLTTCSRIR) | 23.8 |
| LB882 (GEVCLTSCERLR) | 14.9 |
| 2Hd7-3 (CVAMTTCDKLRECMAI) [Peptide 2Hd7-3] | 49 |
| Hd5-10: first generation (G1) peptide lead, SEQ ID NO: 14 (NVDQECMTTCTRLRECQLLL) | 78.4 |
| LB940 (GEVCLTSCSRLK) | > 100 |
| E2A (GAVCLTSCSRLR) [Peptide E2A] | 49 |
| 871-31-S3 (ESRGEVCLTSCERLR) [Peptide 871-31-S3] | 14.9 |
| 3H857-13 (VEAGEVCLTLCEKLM) [Peptide 3H857-13] | 167 |
| LB932 (GEVCLSSCSRLR) | > 100 |
| 2Hd7-2 (CVAMTSCEKLRSCLLL) [Peptide 2Hd7-2] | 19.6 |
| G1A (AEVCLTSCSRLR) [Peptide G1A] | 9.8 |
| LB939 (GEVCLTSCSRVR) | > 100 |
| 930-S8-4 (AVGEVCLTECSRLIQR) [Peptide 930-S8-4] | 11.2 |
| 2Hd7-1 (CVAMTTCSKLRQCLSA) [Peptide 2Hd7-1] | 4.9 |
| 2H9-15 (EVCMTSCDRLKQAFLL) [Peptide 2H9-15] | 78.4 |
| LB931 (GEVCMTSCSRLR) | > 100 |

Target: Human DR5-ECD long form polypeptide (human)
Assay: phage competition ELISA, cross-reactivity
Conditions: not given

| Molecule | IC50 [nM] |
| --- | --- |
| GEVCLTLCSKLR (displayed on phage) [LB952] | 424 |
| GEVCLTLCSRLT (displayed on phage) [LB953] | 23.5 |
| GRVCLTLCSKLR (phage-displayed) [LB954] | 23.5 |
| GEVCLTLCSKLT (displayed on phage) [LB956] | 35.3 |
| GEVCLTECSKLR (displayed on phage) [LB959] | 23.5 |
| GEVCLTECSRLT (phage-displayed) [LB960] | 17.6 |
| GEVCLTECSKLT (phage-displayed) [LB963] | 11.8 |
